# Test results: the supplement of paper PMC9170038
# Test system: MS2 coat protein
# Test: apparent KD of MS2 coat protein; designed switch direction (-1 OFF switch, 1 ON switch): -1; higher = weaker reporter binding
# Method in brief: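 Each step of the titration lasted 0.8–1.5 h at the lowest concentration and 10–20 min at the highest. The protein, SNAP-549-labelled MS2 coat protein, went from 0.7 or 1.5 nM doubling to 3 µM over RNA switches transcribed on Illumina chips by stalled E. coli RNA polymerase. Normalised cluster fluorescence was curve-fitted, and the per-design median over clusters is given as apparent KD.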
# [1] = Eterna round: R95, input ligand: FMN 200 uM
# [2] = Eterna round: R95, input ligand: microRNA oligo, concentration not stated
# [3] = Eterna round: R95, input ligand: none
# [4] = input ligand: microRNA oligo, concentration not stated
Sequence,apparent KD of MS2 coat protein [2] [µM],apparent KD of MS2 coat protein (input ligand: FMN 200 uM) [µM],apparent KD of MS2 coat protein (input ligand: none) [µM],further results
UAUUCUAGAUAGGAUAUACUUUUUUUUUUUUUCGUAGAAGGAUCUACAUGAGGAUCACCCAUGUUAUCAGCAGU [JR_E6_Sub011] (puzzle: Exclusion 6),0.0302,,,apparent KD of MS2 coat protein [1]: 0.0275 µM; apparent KD of MS2 coat protein [3]: 0.0224 µM
"AGGUGUAGAGGAUAUACUGCAAAGCACAUGAGGAUCACCCAUGUCCCUCUAUGAGAUUAAGUAGAAGGCUACACCA [Omei Ex5 C4] (Eterna round: R97, puzzle: Exclusion 5)",,0.0557,0.0499,
AAUAACAGAGGAUAUACUAUUUUAUGUGUUUGUUAUUUUAAACAUGAGGAUCACCCAUGUAGAAGGCUGAAUAA [JMF 14] (puzzle: Exclusion 2),0.0191,,,
AUCAUGUAAGGAUAUCUUACAUGUAUCGAAAGAUACAGUUAAGAGAAGGUACAUGAGGAUCACCCAUGUAUAAC [Ex4-3: 35] (puzzle: Exclusion 4),0.0252,,,
"AAGACACAUGAGGAUCACCCAUGUGAGGAUAUGCGAUGCUAAGCGUAAGCUUAGUAUCGCAGAAGGCACAAAGG [Salishxclusion 4 - Jieux - Exclusion 1] (Eterna round: R97, puzzle: Exclusion 1)",,0.0769,0.064,
"AAUACAAGCUAUUGAUCCCACAUGAGGAUCACCCAUGUAGGAGGCCGUGAGACCUCCUUUACGAUAGCUCGUCUUAU [Sensor-V1 #52] (Eterna round: R97, puzzle: Sensor, turn-off variant 1)",,0.211,0.208,
GAGCUAUGAGGAUAUGCAUAUAUGCGGUUUCGUGUGGUACUACAUGAGGAUCACCCAUGUAGAAGGCGUGGCAG [Mat - Exclusion 2 - Mod of JL - D79] (puzzle: Exclusion 2),0.0132,,,
"UACGAGUUAGGAUAUGCAUUGGGCUCGCUUUCCUUCGAUAAACUUGAGGAUCACCCAAGUAGAAGGAACUUGUA [Mod 35 - Jieux - Exclusion 2] (Eterna round: R97, puzzle: Exclusion 2)",,0.0423,0.0164,
"GGUGGGAGGGAUGUGGUGUACAUGAGGAUCACCCAUGUGGUGGACGGGCGCGGGUGCGGGUUUUUUGUUCGUCUUGU [High Nucleotide Full Attached] (Eterna round: R97, puzzle: Sensor, turn-off variant 1)",,0.131,0.159,
"CAGUCGAUAAGAUCAAUUAAUUAACAUGAGGAUCACCCAUGUGAGGAUAUCAGCUCGUUUAGAGCUGAGAAGGCACAACGACUG [ExNG3/17-A2] (Eterna round: R96, puzzle: Exclusion NG 3)",,0.305,0.0379,apparent KD of MS2 coat protein [4]: 0.0324 µM
"CUCAAAAGUCGGUUUACACACAUGAGGAUCACCCAUGUAAGCAAACAUAUAGGCUCUACGAUUUGCUCGCUCUUAUA [Eternabot (L1) Solution 34] (Eterna round: R97, puzzle: Sensor, turn-off variant 1)",,0.0135,0.0132,
"GACAUCGCAGGAUAUUAGGGUUUGUACAUGAGGAUCACCCAUGUUAAUUGGGUUAAUGUUUAAGAAGGGCGGUGUC [JR_EX5_Sub017] (Eterna round: R97, puzzle: Exclusion 5)",,0.528,0.383,
CAGACACAUGAGGAUCACCCAUGUGAGGAUAUGCGUACGUUGUCCGUAGGCGACGUGCGCAGAAGGCGCAUAGG [JL-ex1-3.11 Eli mod] (puzzle: Exclusion 1),0.0743,,,apparent KD of MS2 coat protein [1]: 0.0517 µM; apparent KD of MS2 coat protein [3]: 0.0501 µM
GUGUACAGAGGAUAUACACGAGGAGUUACGAAAGUAACUUCACAUGAGGAUCACCCAUGUAGAAGGCUGUACAC [Dot plot directed v6] (puzzle: Exclusion 2),0.0254,,,
"AGCUGUGGCCGAGGAUAUGACAUGAGGAUCACCCAUGUACAUAAUUAGGCCUGGUAACAGGCUCGUCAGAAGGCGGUCUCAGCA [Eli eng2 - 007] (Eterna round: R96, puzzle: Exclusion NG 2)",,0.0123,0.0126,apparent KD of MS2 coat protein [4]: 0.00831 µM
"CCACGACAUGAGGAUCACCCAUGUGAGGAUAUGGCCUGAAAAGCGUGAGCAGAAUCAAUCAGAAGGCGCGUGGG [salish99_ex1_r4_060] (Eterna round: R97, puzzle: Exclusion 1)",,0.0732,0.0457,
GAUAAGGUAGGAUAUACGAAUAAAAAGGGUAGAAGAAGAACACAUGAGGAUCACCCAUGUAGAAGGACCAAUAG [Mat - Exclusion 2 - Mod of my Tesla design - D24] (puzzle: Exclusion 2),0.0197,,,apparent KD of MS2 coat protein [1]: 0.0379 µM; apparent KD of MS2 coat protein [3]: 0.0165 µM

Sequence,apparent KD of MS2 coat protein [2] [µM],apparent KD of MS2 coat protein (input ligand: FMN 200 uM) [µM],apparent KD of MS2 coat protein (input ligand: none) [µM],further results
GGUGCGUUUGUGAGGAUAUGCUGGUCCUUGGAUCAGCAGAAGGCACAUGAGGAUCACCCAUGUGGUGUCGUUCC [salish99_Bmod_Ex4_037] (puzzle: Brourd's mod of Exclusion 4),0.137,,,
"CCUCGACAUGAGGAUCACCCAUGUGAGGAUAUGGCCUGUAUGGCGUGAGCUGAAUCAAUCAGAAGGCGCGUGGG [salish99_ex1_r4_054] (Eterna round: R97, puzzle: Exclusion 1)",,0.0563,0.027,
GAUUGACAUGAGGAUCACCCAUGUGAGGAUAUCGGCCGGACCGUGUUGGCUUCCGUCGCGAGAAGGCGCAUAGG [Exclusion 1 V39] (puzzle: Exclusion 1),0.0822,,,apparent KD of MS2 coat protein [1]: 0.173 µM; apparent KD of MS2 coat protein [3]: 0.101 µM
"GAAAACGCAGAGGAUAUUUCAGAUCAAAGCUGCAAAGAAGGCUGCACAUGAGGAUCACCCAUGUGGUCUUUAAA [Mod of Quesina - Jieux - Exclusion 6] (Eterna round: R97, puzzle: Exclusion 6)",,0.286,0.0207,
"GAGUUAGCGUGAGGAAUAUACAUGAGGAUCACCCAUGUUAGCUAAUAUAUUGCUCGUCUUAUAACAACAAUUAACUC [Alarm 10 - Jieux - Sensor, turn-off variant 1] (Eterna round: R97, puzzle: Sensor, turn-off variant 1)",,0.0146,0.0132,
CGUGCGUAUGUGAGGAUAUGCUGGUCCUUGGAUCAGCAGAAGGCACAUGAGGAUCACCCAUGUGGUGUCGUACU [salish99_Bmod_Ex4_017] (puzzle: Brourd's mod of Exclusion 4),0.161,,,
CCCUCAGUCUAGGAUAUAACAAUCAGAUAUCAGUUAGAAGGAGACACAUGAGGAUCACCCAUGUGGGUCAAUAA [Bearener] (puzzle: Exclusion 6),0.0202,,,apparent KD of MS2 coat protein [1]: 0.0507 µM; apparent KD of MS2 coat protein [3]: 0.0213 µM
"AGGUCACAUGAGGAUCACCCAUGUCAGGAUAUCUACAUUGAAGCUUCGGCUUCAAUGUAGAGAAGGGACAAUUA [E1/6-B1] (Eterna round: R97, puzzle: Exclusion 1)",,0.341,0.0757,
GUCUCGUCAGGAUAUGACGCUACAUUUUGUUUUUAGAAGAGUCAGAAGGGACAUGAGGAUCACCCAUGUGAUUC [Ex4 - 3 - 1] (puzzle: Exclusion 4),0.257,,,
"ACAUGAGGAUCACCCAUGUGACCACGAUGGCUGAUGUAGAGACAGGAUAUGUGUGAAUAUCUAUCACAGAAGGGUCUUGACUGG [Deportation 54 - Jieux - Exclusion NG 3] (Eterna round: R96, puzzle: Exclusion NG 3)",,0.0353,0.0313,apparent KD of MS2 coat protein [4]: 0.0257 µM
UUCUAACGAGGAUAUCGAUGGUGGAACAUGAGGAUCACCCAUGUAUGAGAUAUUGUAGUUCGAGAAGGCGUUCAGU [JR_E5_Sub057] (puzzle: Exclusion 5),0.0366,,,
"AGAGAAUACUCAGGAUAUCGGAAUAGAAAGAGACGAGAAGGGAGACAUGAGGAUCACCCAUGUGAAGUCUUGAGGCUGCAUGGA [Prohibition 26 - Jieux - Exclusion NG 1] (Eterna round: R96, puzzle: Exclusion NG 1)",,0.197,0.165,apparent KD of MS2 coat protein [4]: 0.122 µM
"CCCAUGUCAGGAUAUUAAUUGAGCAGGAAGCCCUGUCCACUUGAGAAGGGACAUGAGGAUCACCCAUGUAAAAC [Radiaena] (Eterna round: R97, puzzle: Exclusion 4)",,0.138,0.417,
"GUAGAGUCAGGAUAUACGAGAUCGAAAGAUCUUUGAUCCUUACAUGAGGAUCACCCAUGUAGAAGGGACUCUAC [Omei mod 2 to Eli's favorate candidate (ch.parushev)] (Eterna round: R97, puzzle: Exclusion 2)",,0.513,0.0432,
"GAGAUACAUGAGGAUCACCCAUGUGAGGAUAUGAGUCAGUCACGGUGACGUGGCUGACUCAGAAGGCACAAAGG [Mat - Exclusion 1 - JL Mod - D35] (Eterna round: R97, puzzle: Exclusion 1)",,0.0889,0.15,
"AAAUAGUGAGGAUAUUAGUUGUACGUCAAUAGACGUAUAAGUGAGAAGGCACAUGAGGAUCACCCAUGUUCCUG [Omei Ex4 Mod of Mat's R95 mod of Omei v8] (Eterna round: R97, puzzle: Exclusion 4)",,0.0344,0.0183,
"UGUACUAUGCGAGCUGACUUGCGUAGUGCAGCAGGUGUUACAUGAGGAUCACCCAUGUCCUCAUUUGCUCGUCUUAU [SL-sv3-2.04 JL mod] (puzzle: Sensor v3, turn-off variant 2)",0.231,,,apparent KD of MS2 coat protein [1]: 0.289 µM; apparent KD of MS2 coat protein [3]: 0.2 µM
